Test [1] deals with LFA-1 leucine zipper fusion protein (UniProt P20701). The experiment in a line: ELISA, CAM/Ig on captured integrin. For orientation: ELISA stands for enzyme-linked immunosorbent assay.
For test [2], the target named is soluble human αd/CD18 leucine zipper heterodimer (human) (UniProt P05107). The experiment in a line: ELISA, CAM/Ig on αd/CD18LZ captured with 212D.

B1: ICAM-2/Ig (Fc fusion, part only; not given: Ig Fc portion, UniProt P13598 25-223, looked up, part only)
chain, part: KVFEVHVRPKKLAVEPKGSLEVNCSTTCNQPEVGGLETSLDKILLDEQAQWKHYLVSNISHDTVLQCHFTCSGKQESMNSNVSVYQPPRQVILTLQPTLVAVGKSFTIECRVPTVEPLDSLTLFLFRGNETLHYETFGKAAPAPQEATATFNSTADREDGHRNFSCLAVLDLMSRGGNIFHKHSAPKMLEIYEPVSDSQ
Regarding B1, the fold above background in test [1] turned out to be 10 fold.

B2: VCAM-1/IgG1 fusion protein (seven extracellular immunoglobulin-like domains) (Fc fusion, UniProt P19320 25-698, looked up, not shown: a dimerising Fc or GST)
chain: FKIETTPESRYLAQIGDSVSLTCSTTGCESPFFSWRTQIDSPLNGKVTNEGTTSTLTMNPVSFGNEHSYLCTATCESRKLEKGIQVEIYSFPKDPEIHLSGPLEAGKPITVKCSVADVYPFDRLEIDLLKGDHLMKSQEFLEDADRKSLETKSLEVTFTPVIEDIGKVLVCRAKLHIDEMDSVPTVRQAVKELQVYISPKNTVISVNPSTKLQEGGSVTMTCSSEGLPAPEIFWSKKLDNGNLQHLSGNATLTLIAMRMEDSGIYVCEGVNLIGKNRKEVELIVQEKPFTVEISPGPRIAAQIGDSVMLTCSVMGCESPSFSWRTQIDSPLSGKVRSEGTNSTLTLSPVSFENEHSYLCTVTCGHKKLEKGIQVELYSFPRDPEIEMSGGLVNGSSVTVSCKVPSVYPLDRLEIELLKGETILENIEFLEDTDMKSLENKSLEMTFIPTIEDTGKALVCQAKLHIDDMEFEPKQRQSTQTLYVNVAPRDTTVLVSPSSILEEGSSVNMTCLSQGFPAPKILWSRQLPNGELQPLSENATLTLISTKMEDSGVYLCEGINQAGRSRKEVELIIQVTPKDIKLTAFPSESVKEGDTVIISCTCGNVPETWIILKKKAETGDTVLKSIDGAYTIRKAQLKDAGVYECESKNKVGSQLRSLTLDVQGRENNKDYFSPE
B2: the fold increase in signal above background in test [2] was 5 fold.

The values above are taken from patent EP2182008A2.
